This note sets out measurements from PMC10066265, “Inhibitor-3 inhibits Protein Phosphatase 1 via a metal binding dynamic protein–protein interaction” (Nature Communications, 2023).

Assay [1] concerns the target T1, PP1_7-330 (Homo sapiens, UniProt P62136).
T1 construct: gene PPP1CA; His6-PP1α7-330, E. coli expressed, Mn2+ loaded
Here is the method:
SPR measurements were performed using a 4-channel Reichert 4SPR instrument fitted with autosampler and a degassing pump (Reichert Technologies). SPR buffers containing 20 mM Tris pH 8.0, 500 mM NaCl, 1 mM MnCl2, 0.5 mM TCEP, 0.05% Tween-20 were prepared, sterile filtered, and degassed in autoclaved glassware prior to each experiment. Running buffer was used to prime and run both the sample and syringe pump reservoirs. Gold sensorchips modified with Ni-NTA-functionalized polycarboxylate (NiH[…]; XanTec Bioanalytics GmbH) were installed and equilibrated under flow conditions (100 μL/min) for ≥60 min at 25 °C. Surface contaminants were cleared from the chip surface by a pair of 120 μL injections of 2 M NaCl and 10 mM NaOH during the equilibration step. […] The sensorchip was allowed to equilibrate for 5 min at 50 μL/min prior to initiation of experiments. The concentrations of I3_1-126 and its variants ([…] and […]3_79-91) were measured using AccuOrange^TM Protein Quantification Kit (Biotium). For measurements, I3_1-126 and its variants were diluted into running buffer from concentrated stocks, and a series of injections at different I3 concentrations were applied. […] For all experiments, buffer blank injections were included at an interval of two sample injections to achieve double referencing. Technical replicates were obtained by utilizing three channels per chip coupled with stripping of the sensorchip with 350 mM EDTA pH 8.0, reconditioning the surface with 10 mM NaOH to remove non-specifically bound PP1 aggregates, charging the surface with 10 mM NiSO4, and reloading fresh PP1 onto the surface. All replicates were generated with freshly diluted PP1 and I3. Kinetic parameters were determined by curve-fitting using TraceDrawer software (Ridgeview Instruments AB) fit with a one-to-one one state or one-to-one two state model. Statistical analyses of SPR data were performed using Microsoft Excel.

Assay [2] deals with T1, PP1_7-330. The note with it: SD, n = 3.
The target in assay [3] is T2, His6-PP1α_(7-330) (UniProt P62136 7-330).
T2 construct: Protein Phosphatase 1 alpha (PP1α), residues 7-330; Captured by its His6 tag on the Ni-NTA chip for SPR; Two Mn2+ at the active site when made in E. coli with MnCl2; also called PP1_(7-330); Protein Phosphatase 1; source: bacterial expression (E. coli) as previously described, purified (Ni-NTA, SEC)
The experiment in a line: SPR; His6-PP1 captured on a Ni-NTA sensorchip (NiHC200M), I3 variants injected; 25 °C; 20 mM Tris pH 8.0, 500 mM NaCl, 1 mM MnCl2, 0.5 mM TCEP, 0.05% Tween-20; one-to-one one state or one-to-one two state model. The note with it: both partners purified. (In general: Surface plasmon resonance follows binding to a sensor surface in real time, without labels.)

The next assay addresses T3, PP1α_(7-330) (UniProt P62136 7-330).
T3 construct: Protein Phosphatase 1 alpha (PP1α), residues 7-330; His6-PP1 was captured on the Ni-NTA sensor chip as the SPR ligand; Mn2+ in all buffers; also called Protein Phosphatase 1; His6-PP1; source: E. coli, purified (Ni-NTA, SEC)
The experiment in a line: SPR; His6-PP1 captured on Ni-NTA chip (NiHC200M), I3 variants injected; 25 °C; 20 mM Tris pH 8.0, 500 mM NaCl, 1 mM MnCl2, 0.5 mM TCEP, 0.05% Tween-20; one-to-one one state or one-to-one two state model (TraceDrawer). The note with it: both partners purified.

Assay [4] deals with T2, His6-PP1α_(7-330). Briefly: cell-based or functional assay.

“And” between values parts separate entries of the source, which are not always exact repeats. Equal values may be shown once. Read-outs that look alike come from different tables or passages of the source.

T2 sequence (P62136 7-330): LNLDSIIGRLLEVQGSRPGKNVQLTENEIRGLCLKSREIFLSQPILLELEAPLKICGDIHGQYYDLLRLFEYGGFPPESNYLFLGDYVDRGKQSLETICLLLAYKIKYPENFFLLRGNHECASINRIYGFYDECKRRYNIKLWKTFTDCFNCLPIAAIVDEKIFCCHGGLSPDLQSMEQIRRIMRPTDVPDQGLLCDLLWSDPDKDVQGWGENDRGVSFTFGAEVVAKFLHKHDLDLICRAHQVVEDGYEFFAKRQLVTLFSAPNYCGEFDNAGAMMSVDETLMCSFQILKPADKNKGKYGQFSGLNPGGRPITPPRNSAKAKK
T1 sequence (P62136 7-330): as above
T3 sequence (P62136 7-330): as above

Turning to “I3 1-126 C60S/C61S/C62S [SSS: I3_1-126 C60S/C61S/C62S]”, the Kd (usually the concentration at which binding is half-saturated) at PP1_7-330 [1] (n = 3) is 300 ± 23 nM.

At PP1_7-330 [1] (n = 3), “I3 1-126 T29A/I30A/K31A [SILKdead: I3_1-126 T29A/I30A/K31A]” showed an equilibrium dissociation constant (Kd) of 13.1 ± 2.8 nM.

For the molecule “I3 1-126 with KVEW 40-43 mutated to KAEA [RVxFdead: I3_1-126 ^40KAEA^43]”, the Kd at PP1_7-330 [1] (n = 4) was 3460 ± 531 nM.

Turning to “human Inhibitor-3 (PPP1R11) full length, residues 1-126 [I3_1-126]”, binding at PP1_7-330 [1] (n = 3) was characterised by a dissociation constant (Kd) of 15.7 ± 2 nM. Also, the IC50 (usually the concentration that gives 50% inhibition) against PP1_7-330 [2] is 71 ± 6 nM.

B1: SILK_(dead): I3_(27-68) T29A/I30A/K31A (domain or fragment, human, UniProt O60927 27-68, looked up)
chain: SLAAALRKRKPEKKVEWTSDTVDNEHMGRRSSKCCCIYEKPR
notes: PPP1R11), human, residues 27-68; also called I3_(27-68) 29AAA31; source: E. coli BL21 (DE3), purified (Ni-NTA, TEV, heat 95 °C, SEC); not shown: His6, N-terminal, cleaved; MBP, N-terminal, cleaved
As to B1, the affinity with His6-PP1α_(7-330) [3], expressed as Kd, was 16.8 ± 2.8 nM.

B2: SILK_(dead): I3_(27-68) T29A/I30A/K31A (domain or fragment, human, UniProt O60927 27-68, looked up)
chain: SLAAALRKRKPEKKVEWTSDTVDNEHMGRRSSKCCCIYEKPR
notes: PPP1R11), human, residues 27-68, T29A/I30A/K31A; also called I3_27-68_SLAAA; I3_(27-68) 29AAA31; source: E. coli BL21 (DE3), purified (Ni-NTA, TEV cleavage, heat, SEC); not shown: His6, N-terminal, cleaved; MBP, N-terminal, cleaved
As for B2, in the assay with PP1α_(7-330), the Kd is 13.5 nM and 18.2 nM and 18.6 nM.

B3: Inhibitor-3 I3_(1-126) (full-length) (natural protein, human, UniProt O60927 1-126, looked up)
chain: MAEAGAGLSETVTETTVTVTTEPENRSLTIKLRKRKPEKKVEWTSDTVDNEHMGRRSSKCCCIYEKPRAFGESSTESDEEEEEGCGHTHCVRGHRKGRRRATLGPTPTTPPQPPDPSQPPPGPMQH
notes: PPP1R11), human, 126 aa, residues 1-126; Uniformly 15N-labelled in the NMR experiment, unlabelled in SPR; also called PPP1R11; YPI1; source: E. coli BL21 (DE3), purified (Ni-NTA, TEV, heat 95 °C, SEC); not shown: His6, N-terminal, cleaved; MBP, N-terminal, cleaved
Turning to B3, in the assay with His6-PP1α_(7-330) [4], the “IC50 of PP1 inhibition (dephosphorylation of the H3pT3 peptide, released Pi)” value was 71 nM. Binding in the assay with His6-PP1α_(7-330) [3] was put at a Kd of 15.7 ± 2 nM.

B4: I3_(1-126) (FL, full-length) (natural protein, human, UniProt O60927 1-126, looked up)
chain: MAEAGAGLSETVTETTVTVTTEPENRSLTIKLRKRKPEKKVEWTSDTVDNEHMGRRSSKCCCIYEKPRAFGESSTESDEEEEEGCGHTHCVRGHRKGRRRATLGPTPTTPPQPPDPSQPPPGPMQH
notes: PPP1R11), human, 126 aa, residues 1-126; also called PPP1R11; source: E. coli BL21 (DE3), purified (Ni-NTA, TEV cleavage, heat, SEC); not shown: His6, N-terminal, cleaved; MBP, N-terminal, cleaved
Turning to B4, the Kd in the assay with PP1α_(7-330) was 17.7 nM and 13.7 nM and 15.6 nM.

B5: SSS: I3_(1-126) C60S/C61S/C62S (natural protein, human, UniProt O60927 1-126, looked up)
chain: MAEAGAGLSETVTETTVTVTTEPENRSLTIKLRKRKPEKKVEWTSDTVDNEHMGRRSSKSSSIYEKPRAFGESSTESDEEEEEGCGHTHCVRGHRKGRRRATLGPTPTTPPQPPDPSQPPPGPMQH
notes: PPP1R11), human, residues 1-126, C60S/C61S/C62S; also called I3_1-126_SSS; I3_(1-126)SSS; source: E. coli BL21 (DE3), purified (Ni-NTA, TEV cleavage, heat, SEC); not shown: His6, N-terminal, cleaved; MBP, N-terminal, cleaved
In the case of B5, in the assay with PP1α_(7-330), the Kd is 295 nM and 330 nM and 287 nM and 304 nM; the koff (commonly the rate constant with which the complex falls apart) is 0.0957 s⁻¹ and 0.103 s⁻¹ and 0.093 s⁻¹ and 0.0972 s⁻¹; the kon (as a rule, a measure of how fast the partners come together) is 325000 M⁻¹ s⁻¹ and 313000 M⁻¹ s⁻¹ and 321000 M⁻¹ s⁻¹.

B6: SSS: I3_(1-126) C60S/C61S/C62S (natural protein, human, UniProt O60927 1-126, looked up)
chain: MAEAGAGLSETVTETTVTVTTEPENRSLTIKLRKRKPEKKVEWTSDTVDNEHMGRRSSKSSSIYEKPRAFGESSTESDEEEEEGCGHTHCVRGHRKGRRRATLGPTPTTPPQPPDPSQPPPGPMQH
notes: PPP1R11), human, residues 1-126; also called I3_(1-126)SSS; source: E. coli BL21 (DE3), purified (Ni-NTA, TEV, heat 95 °C, SEC); not shown: His6, N-terminal, cleaved; MBP, N-terminal, cleaved
Molecule B6 gave a Kd with His6-PP1α_(7-330) [3] of 300 ± 23 nM.

B7: RVxF_(dead): I3_(1-126) 40KAEA43 (natural protein, human, UniProt O60927 1-126, looked up)
chain: MAEAGAGLSETVTETTVTVTTEPENRSLTIKLRKRKPEKKAEATSDTVDNEHMGRRSSKCCCIYEKPRAFGESSTESDEEEEEGCGHTHCVRGHRKGRRRATLGPTPTTPPQPPDPSQPPPGPMQH
notes: PPP1R11), human, residues 1-126; Uniformly 15N-labelled in the NMR experiment, unlabelled in SPR; also called I3_(RAXA) variant; I3 RVxF_(dead); source: E. coli BL21 (DE3), purified (Ni-NTA, TEV, heat 95 °C, SEC); not shown: His6, N-terminal, cleaved; MBP, N-terminal, cleaved
As for B7, in the assay with His6-PP1α_(7-330) [3], the Kd was determined as 3460 ± 531 nM. Against the preceding molecule, the Kd is about 12-fold higher.

B8: SILK_(dead): I3_(1-126) T29A/I30A/K31A (natural protein, human, UniProt O60927 1-126, looked up)
chain: MAEAGAGLSETVTETTVTVTTEPENRSLAAALRKRKPEKKVEWTSDTVDNEHMGRRSSKCCCIYEKPRAFGESSTESDEEEEEGCGHTHCVRGHRKGRRRATLGPTPTTPPQPPDPSQPPPGPMQH
notes: PPP1R11), human, residues 1-126; also called I3_(1-126) 29AAA31; source: E. coli BL21 (DE3), purified (Ni-NTA, TEV, heat 95 °C, SEC); not shown: His6, N-terminal, cleaved; MBP, N-terminal, cleaved
As to B8, the Kd with His6-PP1α_(7-330) [3] turned out to be 13.1 ± 2.8 nM.

B9: RVxF_(dead): I3_(1-126) 40KAEA43 (natural protein, human, UniProt O60927 1-126, looked up)
chain: MAEAGAGLSETVTETTVTVTTEPENRSLTIKLRKRKPEKKAEATSDTVDNEHMGRRSSKCCCIYEKPRAFGESSTESDEEEEEGCGHTHCVRGHRKGRRRATLGPTPTTPPQPPDPSQPPPGPMQH
notes: PPP1R11), human, residues 1-126, 40KVEW43 mutated to 40KAEA43; also called I3_1-126_KAEA; I3_(RAXA); source: E. coli BL21 (DE3), purified (Ni-NTA, TEV cleavage, heat, SEC); not shown: His6, N-terminal, cleaved; MBP, N-terminal, cleaved
With B9, the Kd with PP1α_(7-330) was 3390 nM and 3260 nM and 2970 nM and 4210 nM.

B10: SILK_(dead): I3_(1-126) T29A/I30A/K31A (natural protein, human, UniProt O60927 1-126, looked up)
chain: MAEAGAGLSETVTETTVTVTTEPENRSLAAALRKRKPEKKVEWTSDTVDNEHMGRRSSKCCCIYEKPRAFGESSTESDEEEEEGCGHTHCVRGHRKGRRRATLGPTPTTPPQPPDPSQPPPGPMQH
notes: PPP1R11), human, residues 1-126, T29A/I30A/K31A; also called I3_1-126_SLAAA; I3_(1-126) 29AAA31; source: E. coli BL21 (DE3), purified (Ni-NTA, TEV cleavage, heat, SEC); not shown: His6, N-terminal, cleaved; MBP, N-terminal, cleaved
For the molecule B10, the Kd in the assay with PP1α_(7-330) was 16.3 nM and 11.9 nM and 11.2 nM.

B11: SILK_(deletion): I3_(38-68) (Δ27-37) (domain or fragment, human, UniProt O60927 38-68, looked up)
chain: EKKVEWTSDTVDNEHMGRRSSKCCCIYEKPR
notes: PPP1R11), human, residues 38-68; source: E. coli BL21 (DE3), purified (Ni-NTA, TEV, heat 95 °C, SEC); not shown: His6, N-terminal, cleaved; MBP, N-terminal, cleaved
B11: binding with His6-PP1α_(7-330) [3] was characterised by a dissociation constant (Kd) of 15.2 ± 2.5 nM.

B12: SILK_(deletion): I3_(38-68) (Δ27-37) (domain or fragment, human, UniProt O60927 38-68, looked up)
chain: EKKVEWTSDTVDNEHMGRRSSKCCCIYEKPR
notes: PPP1R11), human, residues 38-68; also called SILKdead: I338-68 (Δ27-37); source: E. coli BL21 (DE3), purified (Ni-NTA, TEV cleavage, heat, SEC); not shown: His6, N-terminal, cleaved; MBP, N-terminal, cleaved
In the case of B12, in the assay with PP1α_(7-330), the Kd is 14.8 nM and 17.9 nM and 13 nM.
